In patent publication US20260193293A1, “PEPTIDES CAPABLE OF INHIBITING PROTEIN-PROTEIN INTERACTIONS AT GABAB1A SUBUNIT AND USES THEREOF” (UNIVERSITY OF COPENHAGEN, priority 2022, published 2026):
“And” between values parts separate entries of the source, which are not always exact repeats. Equal entries are not always repeated. Non-standard residues stand in square brackets, D forms with d. 2Nal = N[C@@H](Cc1ccc2ccccc2c1)C(=O)O; Sar = CNCC(=O)O

What was measured:
[1] = target: Sushi domains (SD1/2) protein of the GABAB1a (GB1a) subunit, recombinant; test: FP competition
[2] = target: Sushi domains (SD1/2) protein of the GABAB1a (GB1a) subunit, recombinant; test: FP inhibition
[3] = target: Sushi domains (SD1/2) protein of the GABAB1a (GB1a) subunit, recombinant; test: FP competition with AJAP-1probe
[4] = target: Sushi domains (SD1/2) protein of the GABAB1a (GB1a) subunit, recombinant; test: FP inhibition, six-point, crude peptide of the solution array
[5] = target: Sushi domains (SD1/2) protein of the GABAB1a (GB1a) subunit, recombinant; test: FP competition; remark: listed apart in the source
[6] = target: Sushi domains (SD1/2) protein of the GABAB1a (GB1a) subunit, recombinant; test: FP competition; remark: listed apart in the source
[7] = target: Sushi domains (SD1/2) protein of the GABAB1a (GB1a) subunit, recombinant; test: FP competition; end of the range assigned from the Ki values of Table 2
[8] = target: Sushi domains (SD1/2) protein of GABAB1a (GB1a); test: FP competition vs TAMRA AJAP-1probe
[9] = target: Sushi domains (SD1/2) protein of the GABAB1a (GB1a) subunit, recombinant; test: FP competition, N-methylation scan

Sequence of Sushi domains (SD1/2) protein of the GABAB1a (GB1a) subunit, recombinant (Q9Z0U4 29-158): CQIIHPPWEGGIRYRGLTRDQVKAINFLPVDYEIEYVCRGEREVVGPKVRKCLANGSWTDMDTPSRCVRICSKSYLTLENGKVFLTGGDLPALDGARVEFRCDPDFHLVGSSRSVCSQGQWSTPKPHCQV
Sequence of Sushi domains (SD1/2) protein of GABAB1a (GB1a) (Q9Z0U4 29-158): as above

| Binder | Ki [1] | Ki [3] [nM] | also measured |
| --- | --- | --- | --- |
| Ac-RRRREDDD[2Nal]IDWYDSDDD-NH2 (SMILES CC[C@H](C)[C@H](NC(=O)[C@H](Cc1ccc2ccccc2c1)NC(=O)[C@H](CC(=O)O)NC(=O)[C@H](CC(=O)O)NC(=O)[C@H](CC(=O)O)NC(=O)[C@H](CCC(=O)O)NC(=O)[C@H](CCCNC(=N)N)NC(=O)[C@H](CCCNC(=N)N)NC(=O)[C@H](CCCNC(=N)N)NC(=O)[C@H](CCCNC(=N)N)NC(C)=O)C(=O)N[C@@H](CC(=O)O)C(=O)N[C@@H](Cc1c[nH]c2ccccc12)C(=O)N[C@@H](Cc1ccc(O)cc1)C(=O)N[C@@H](CC(=O)O)C(=O)N[C@@H](CO)C(=O)N[C@@H](CC(=O)O)C(=O)N[C@@H](CC(=O)O)C(=O)N[C@@H](CC(=O)O)C(N)=O) [R4-20 (Ac-RRRREDDD(2Nala)…-NH2)] | 12 nM |  | fold higher affinity than 4R-16 [2]: 2 fold |
| Ac-TETEFIAWGPTGDED-NH2 [peptide 15 (Ac-…-NH2)] | 26 nM | 23 |  |
| Ac-EDDSDVWWGGADTD-NH2 [APPWT (Ac-…-NH2)] |  |  | Ki [4]: 635 nM; Ki [5]: 557 nM |
| Ac-EEDDSDVWWGGADTDYAD-NH2 [Peptide 36 (Ac-…-NH2)] | 244 nM and 233 nM | 244 |  |
| Ac-DDSDVWWGGADTDYADG-NH2 |  | 687 |  |
| Ac-DDSDVWWGG-NH2 |  | 2630 |  |
| Ac-EDDSWVWWGGADTD-NH2 [… (APPWT mutant D207W)] | 100 nM |  | Ki [4]: 78 nM |
| Ac-DSADAEEDDSDVWWG-NH2 [peptide 11 (…)] |  | 5030 |  |
| Ac-PWAIVWGPTVSRED-NH2 [PIANPWT (Ac-…-NH2)] | 762 nM |  | Ki [6]: 476 nM |
| Ac-EDDSDVWWYGADTD-NH2 [… (APPWT mutant G211Y)] | 108 nM |  | Ki [4]: 167 nM |
| Ac-RRRRRRRREDDDWIDWYDSDDD-NH2 [R8-16 (Ac-…-NH2)] | 107 nM |  | fold loss of affinity against the untagged peptide [7]: 12 to 33 fold |
| Ac-EDDSDVWWG[Sar]ADTD-NH2 (SMILES CC(=O)N[C@@H](CCC(=O)O)C(=O)N[C@@H](CC(=O)O)C(=O)N[C@@H](CC(=O)O)C(=O)N[C@@H](CO)C(=O)N[C@@H](CC(=O)O)C(=O)N[C@H](C(=O)N[C@@H](Cc1c[nH]c2ccccc12)C(=O)N[C@@H](Cc1c[nH]c2ccccc12)C(=O)NCC(=O)N(C)CC(=O)N[C@@H](C)C(=O)N[C@@H](CC(=O)O)C(=O)N[C@H](C(=O)N[C@@H](CC(=O)O)C(N)=O)[C@@H](C)O)C(C)C) […(N-Me-G)ADTD] | 161 nM |  | Ki [8]: 161 nM; fold increased affinity against APPWT [9]: 3 fold |
